T1: hr fusion protein (hr amino acids 575-1215 fused to either GST or TrpE; which one is not said) (rat, UniProt P97609 549-1181)
T1 construct: also called the hr fusion protein; not shown: fusion partner is GST or TrpE
T1 sequence: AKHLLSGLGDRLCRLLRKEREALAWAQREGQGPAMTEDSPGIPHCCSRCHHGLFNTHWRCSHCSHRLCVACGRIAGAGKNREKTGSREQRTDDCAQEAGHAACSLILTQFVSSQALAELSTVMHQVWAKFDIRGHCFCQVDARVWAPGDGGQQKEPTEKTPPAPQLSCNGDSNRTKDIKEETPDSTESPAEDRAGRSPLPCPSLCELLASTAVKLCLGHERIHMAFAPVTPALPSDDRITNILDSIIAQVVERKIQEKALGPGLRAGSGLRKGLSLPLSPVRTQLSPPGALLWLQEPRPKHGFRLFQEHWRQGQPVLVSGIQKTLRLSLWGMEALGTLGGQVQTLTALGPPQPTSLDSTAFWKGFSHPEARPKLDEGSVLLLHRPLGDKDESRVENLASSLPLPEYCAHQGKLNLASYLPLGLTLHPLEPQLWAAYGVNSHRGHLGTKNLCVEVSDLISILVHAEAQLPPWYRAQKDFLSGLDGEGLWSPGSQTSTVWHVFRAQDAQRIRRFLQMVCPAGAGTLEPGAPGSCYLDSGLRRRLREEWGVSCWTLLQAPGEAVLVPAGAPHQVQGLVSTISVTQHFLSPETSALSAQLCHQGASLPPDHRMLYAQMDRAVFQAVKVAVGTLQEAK


How the values were obtained:
[1] = molecular target: LexA-hr (hr amino acids 575-1215 fused to the lexA DNA binding domain) (rat); experiment: yeast two-hybrid, β-galactosidase activity with TRIAC (10^-6 M) against without hormone
[2] = molecular target: TR (thyroid hormone receptor co-expressed with hr in the reporter assay); experiment: cell-based or functional assay
[3] = molecular target: T1, hr fusion protein (hr amino acids …); experiment: far western, 35S-labeled probe on immobilized hr fusion protein
Protocol: Extracts from bacteria expressing fusion proteins were separated by SDS-polyacrylamide gel electrophoresis and transferred to nitrocellulose.
To examine the specificity of interaction between TR and hr, hr was tested for interaction with TRβ1, retinoic acid receptor (RAR) and retinoid X receptor (RXR).

Row | Molecule | binding result [3] | other results
1 | TRα1 (as tested in the two-hybrid assay) (receptor) |  | fold reduction of interaction by hormone [1]: 2 fold
2 | hr (hairless gene product expressed from an expression construct containing the hr gene) (from UniProt P97609 1-1181) |  | thyroid hormone induced transcription (TRE-containing reporter) [2]: 2 fold
3 | 35S-RAR (retinoic acid receptor, from pCMX hRARα) (receptor, human, UniProt P10276 1-462, looked up, 35S-methionine label) MASNSSSCPTPGGGHLNGYPVPPYAFFFPPMLGGLSPPGALTTLQHQLPVSGYSTPSPATIETQSSSSEEIVPSPPSPPPLPRIYKPCFVCQDKSSGYHYGVSACEGCKGFFRRSIQKNMVYTCHRDKNCIINKVTRNRCQYCRLQKCFEVGMSKESVRNDRNKKKKEVPKPECSESYTLTPEVGELIEKVRKAHQETFPALCQLGKYTTNNSSEQRVSLDIDLWDKFSELSTKCIIKTVEFAKQLPGFTTLTIADQITLLKAACLDILILRICTRYTPEQDTMTFSDGLTLNRTQMHNAGFGPLTDLVFAFANQLLPLEMDDAETGLLSAICLICGDRQDLEQPDRVDMLQEPLLEALKVYVRKRRPSRPHMFPKMLMKITDLRSISAKGAERVITLKMEIPGSMPPLIQEMLENSEGLDTLSGQPGGGGRDGGGLAPPPGSCSPSLSPSSNRSSPATHSP | no binding | 
4 | 35S-RXR (retinoid X receptor, from pCMX hRXRα) (receptor, human, UniProt P19793 1-462, looked up, 35S-methionine label) MDTKHFLPLDFSTQVNSSLTSPTGRGSMAAPSLHPSLGPGIGSPGQLHSPISTLSSPINGMGPPFSVISSPMGPHSMSVPTTPTLGFSTGSPQLSSPMNPVSSSEDIKPPLGLNGVLKVPAHPSGNMASFTKHICAICGDRSSGKHYGVYSCEGCKGFFKRTVRKDLTYTCRDNKDCLIDKRQRNRCQYCRYQKCLAMGMKREAVQEERQRGKDRNENEVESTSSANEDMPVERILEAELAVEPKTETYVEANMGLNPSSPNDPVTNICQAADKQLFTLVEWAKRIPHFSELPLDDQVILLRAGWNELLIASFSHRSIAVKDGILLATGLHVHRNSAHSAGVGAIFDRVLTELVSKMRDMQMDKTELGCLRAIVLFNPDSKGLSNPAEVEALREKVYASLEAYCKHKYPEQPGRFAKLLLRLPALRSIGLKCLEHLFFFKLIGDTPIDTFLMEMLEAPHQMT | no binding | 

Source: patent publication US20060035329A1 (CARNEGIE INSTITUTION OF WASHINGTON, published 2006)
